Values of other authors in US20240173301A1, “2-IMINOBIOTIN FOR USE IN THE TREATMENT OF STROKE” (NEUROPHYXIA B.V., priority 2021, published 2024).

Conditions: acute ischemic stroke, intravenous thrombolysis

B1: Alteplase (protein, UniProt P00750 36-562, looked up)
Tissue-type plasminogen …: SYQVICRDEKTQMIYQQHQSWLRPVLRSNRVEYCWCNSGRAQCHSVPVKSCSEPRCFNGGTCQQALYFSDFVCQCPEGFAGKCCEIDTRATCYEDQGISYRGTWSTAESGAECTNWNSSALAQKPYSGRRPDAIRLGLGNHNYCRNPDRDSKPWCYVFKAGKYSSEFCSTPACSEGNSDCYFGNGSAYRGTHSLTESGASCLPWNSMILIGKVYTAQNPSAQALGLGKHNYCRNPDGDAKPWCHVLKNRRLTWEYCDVPSCSTCGLRQYSQPQFRIKGGLFADIASHPWQAAIFAKHRRSPGERFLCGGILISSCWILSAAHCFQERFPPHHLTVILGRTYRVVPGEEEQKFEVEKYIVHKEFDDDTYDNDIALLQLKSDSSRCAQESSVVRTVCLPPADLQLPDWTECELSGYGKHEALSPFYSERLKEAHVRLYPSSRCTSQHLLNRTVTDNMLCAGDTRSGGPQANLHDACQGDSGGPLVCLNDGRMTLVGIISWGLGCGQKDVPGVYTKVTNYLDWIRDNMRP
notes: fibrinolytic drug
- risk of a poor outcome: reduced the risk of a poor outcome
